Measurements published in patent US20200010554A1 (TUSK THERAPEUTICS, published 2020).
Read-outs that look alike come from different tables or passages of the source. Each block holds one binder with its values, some of them ahead of it.

Assays:
recombinant mouse CD25 = molecular target: T1, recombinant mouse CD25 (mouse, UniProt P01590 22-236, biotinylated in FIG. 1A (site not stated)); test: BLI Octet RED384, IgG on AHQ sensors, 100 nM antigen, 1:1 model
T1 construct: also called biotinylated mouse CD25
T1 sequence (looked up): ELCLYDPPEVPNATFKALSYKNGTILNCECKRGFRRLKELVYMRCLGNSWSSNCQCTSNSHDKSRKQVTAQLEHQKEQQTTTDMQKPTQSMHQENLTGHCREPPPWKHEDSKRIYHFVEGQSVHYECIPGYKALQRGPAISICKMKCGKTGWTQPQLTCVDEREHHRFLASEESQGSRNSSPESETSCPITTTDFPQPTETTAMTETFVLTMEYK

[1] = molecular target: T2, recombinant mouse CD25 his tagged (mouse, UniProt P01590 22-236, limits assumed); test: SPR Biacore 2000, antibody captured by anti-mouse antibody on CM-5 chip, recombinant mouse CD25 his tagged as analyte, bivalent analyte model
T2 construct: also called rmCD25 his tagged; mCD25; not shown: his tag
T2 sequence (looked up): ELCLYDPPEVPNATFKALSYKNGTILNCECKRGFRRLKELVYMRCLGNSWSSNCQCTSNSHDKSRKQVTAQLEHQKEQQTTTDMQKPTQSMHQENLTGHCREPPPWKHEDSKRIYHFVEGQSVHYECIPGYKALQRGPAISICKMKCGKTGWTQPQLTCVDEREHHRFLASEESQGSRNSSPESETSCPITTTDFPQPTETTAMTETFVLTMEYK

[2] = molecular target: T3, mouse CD25 expressed on cells (CHO cells expressing mouse CD25; mouse T cells) (mouse, UniProt P01590 22-268); test: flow cytometry on CHO cells expressing mouse CD25, MFI AF647
T3 construct: whole, on cells; also called CHO-mCD25; cellular expressed mCD25
T3 sequence (looked up): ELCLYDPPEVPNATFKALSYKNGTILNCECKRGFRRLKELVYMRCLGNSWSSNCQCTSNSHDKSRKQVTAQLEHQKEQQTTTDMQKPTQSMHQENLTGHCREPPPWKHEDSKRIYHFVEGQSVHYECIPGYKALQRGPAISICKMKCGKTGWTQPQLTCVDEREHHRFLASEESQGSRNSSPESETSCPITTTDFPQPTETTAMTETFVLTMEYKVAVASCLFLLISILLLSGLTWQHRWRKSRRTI

[3] = molecular target: T4, human CD25 expressed on cells (Karpas 299, SU-DHL-1, SR-786, in vitro differentiated Treg cells, PBMC) (human, UniProt P01589 22-272); test: flow cytometry on SR-786 cells, Geo Mean Intensity
T4 construct: also called CD25 expressing cells
T4 sequence: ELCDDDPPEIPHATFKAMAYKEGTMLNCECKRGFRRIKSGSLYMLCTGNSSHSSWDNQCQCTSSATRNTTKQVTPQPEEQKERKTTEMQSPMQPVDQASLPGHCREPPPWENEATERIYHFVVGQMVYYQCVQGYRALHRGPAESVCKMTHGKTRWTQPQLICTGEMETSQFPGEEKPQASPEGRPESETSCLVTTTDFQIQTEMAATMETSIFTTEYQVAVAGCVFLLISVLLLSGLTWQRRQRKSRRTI

[4] = molecular target: T4, human CD25 expressed on cells (Karpas …); test: flow cytometry on SU-DHL-1 cells, Geo Mean Intensity
[5] = molecular target: T5, recombinant human CD25 his tagged (human, UniProt P01589 22-213, limits assumed); test: SPR, Biacore 2000: antibody captured on an anti-human antibody CM-5 chip, rhCD25 his tagged as analyte, 1:1 Langmuir fit
T5 construct: also called rhCD25 his tagged; rhCD25; not shown: his tag
T5 sequence: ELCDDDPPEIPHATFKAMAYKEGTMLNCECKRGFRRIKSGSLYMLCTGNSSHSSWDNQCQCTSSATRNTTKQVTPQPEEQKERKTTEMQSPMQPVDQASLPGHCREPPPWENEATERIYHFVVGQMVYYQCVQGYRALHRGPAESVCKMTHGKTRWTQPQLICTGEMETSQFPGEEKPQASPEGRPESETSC

[6] = molecular target: T4, human CD25 expressed on cells (Karpas …); test: flow cytometry on Karpas 299 cells, MFI AF647
[7] = molecular target: T5, recombinant human CD25 his tagged; test: SPR, Biacore 2000: antibody captured on an anti-human antibody CM-5 chip, rhCD25 his tagged as analyte, 1:1 Langmuir fit; remark: listed apart in the source
[8] = molecular target: T4, human CD25 expressed on cells (Karpas …); test: flow cytometry on human in vitro differentiated Treg cells, MFI AF647
[9] = molecular target: T4, human CD25 expressed on cells (Karpas …); test: flow cytometry on Karpas 299 cells, MFI AF647; remark: listed apart in the source
[10] = molecular target: T4, human CD25 expressed on cells (Karpas …); test: flow cytometry titration on Karpas 299 cells, AF647 secondary antibody
[11] = molecular target: T4, human CD25 expressed on cells (Karpas …); test: as above; remark: listed apart in the source
[12] = molecular target: T4, human CD25 expressed on cells (Karpas …); test: as above; remark: listed apart in the source
[13] = molecular target: T5, recombinant human CD25 his tagged; test: biolayer interferometry, Octet Red 96: antibody on AHC biosensor, rhCD25 his tagged 50 nM to 0.54 nM, global 1:1 fit [F]
[14] = molecular target: T4, human CD25 expressed on cells (Karpas …); test: flow cytometry titration on Karpas 299 cells, AF647 secondary antibody [Figure 68 continued]
[15] = molecular target: T4, human CD25 expressed on cells (Karpas …); test: as above; remark: listed apart in the source

Kd (recombinant mouse CD25): 4.6 nM | Kd [1]: 3.6 nM | EC50 (read off the curve) [2]: ~0.2 µg/mL
B1: PC61(mIgG2a), recombinant anti-mouse CD25 antibody from clone PC-61.5.3 with murine IgG2a and kappa constant regions (antibody, V domains shown)
VH: EVQLQQSGAELVRPGTSVKLSCKVSGDTITAYYIHFVKQRPGQGLEWIGRIDPEDDSTEYAEKFKNKATITANTSSNTAHLKYSRLTSEDTATYFCTTDNMGATEFVYWGQGTLVTVSS
VL: QVVLTQPKSVSASLESTVKLSCKLNSGNIGSYYMHWYQQREGRSPTNLIYRDDKRPDGAPDRFSGSIDISSNSAFLTINNVQTEDEAMYFCHSYDGRMYIFGGGTKLTV
notes: also called PC61m2a; aPC61 mIgG2a

EC50 (read off the curve) [3]: ~0.9 µg/mL | EC50 (read off the curve) [4]: ~0.8 µg/mL | Kd [5]: 6.7 nM | EC50 (read off the curve) [6]: ~1 µg/mL
B2: chimeric 7G7B6 (antibody, V domains shown)
VH: EVQLVESGGDLVQPRGSLKLSCAASGFTFSSYGMSWVRQTPDKRLELVATINGYGDTTYYPDSVKGRFTISRDNAKNTLYLQMSSLKSEDTAMYFCARDRDYGNSYYYALDYWGQGTSVTVSS
VL: QIVLSQSPAILSASPGERVTMTCRASSSVSFMHWLQQKPGSSPKPWIYATSNLASGVSARFSGSGSGTSYSLTITRVEAEDAATYYCQQWSSNPPAFGGGTKLEIK
notes: also called 7G7B6 chimeric antibody; 7g7B6ch

Kd [7]: 6.6 nM
B3: MA251ch (antibody, V domains shown)
VH: QVQLKESGPGLVAPSQSLSITCTVSGFSLTSYGIQWVRQPPGKGLEWLGVIWAGGSTNYNSALMSRLSISKDNSKSQVFLKMNSLQTDDTAMYYCARAYGYDGSWLAYWGQGTLVTVSS
VL: QIVLSQSPAILSASPGEKVTMTCRASSSVSYMHWYQQKPGSSPKPWIFATSNLASGVPARFSGSGSGTSYSLTINRVEAEDADTYYCQQWSSNPPTFGGGTKLEIK

EC50 (read off the curve) [9]: ~0.1 µg/mL
B5: MA251, mouse anti-human CD25 antibody (antibody, V domains shown)
VH: QVQLKESGPGLVAPSQSLSITCTVSGFSLTSYGIQWVRQPPGKGLEWLGVIWAGGSTNYNSALMSRLSISKDNSKSQVFLKMNSLQTDDTAMYYCARAYGYDGSWLAYWGQGTLVTVSS
VL: QIVLSQSPAILSASPGEKVTMTCRASSSVSYMHWYQQKPGSSPKPWIFATSNLASGVPARFSGSGSGTSYSLTINRVEAEDADTYYCQQWSSNPPTFGGGTKLEIK
notes: Mouse isotype (compared with a mouse IgG1 isotype control)

binding result [11]: binds
B7: Antibody 7 (antibody, V domains shown)
VH: EVQLLESGGGLVQPGGSLRLSCAASGFTFSSYGMSWVRQAPGKGLELVSTINGYGDTTYYPDSVKGRFTISRDNSKNTLYLQMNSLRAEDTAVYYCARDRDYGNSYYYALDYWGQGTLVTVSS
VL: QIVLTQSPGTLSLSPGERATLSCRASSSVSFMHWLQQKPGQSPRPLIYATSNLASGIPDRFSGSGSGTDYTLTISRLEPEDFAVYYCQQWSSNPPAFGQGTKLEIK
notes: compared with a human IgG1 isotype control

binding result [12]: binds
B8: Antibody 8 (antibody, V domains shown)
VH: EVQLLESGGGLVQPGGSLRLSCAASGFTFSSYGMSWVRQAPGKGLELVSTINGYGDTTYYPDSVKGRFTISRDNAKNTLYLQMNSLRAEDTAVYFCARDRDYGNSYYYALDYWGQGTLVTVSS
VL: EIVLTQSPGTLSLSPGERATLSCRASSSVSFMHWLQQKPGQAPRPLIYATSNLASGIPDRFSGSGSGTDYTLTISRLEPEDFAVYYCQQWSSNPPAFGQGTKLEIK
notes: as for B7

The next lines start with the binder.

B4: 7G7B6, mouse IgG2a anti-human CD25 antibody (antibody, V domains shown)
VH: EVQLVESGGDLVQPRGSLKLSCAASGFTFSSYGMSWVRQTPDKRLELVATINGYGDTTYYPDSVKGRFTISRDNAKNTLYLQMSSLKSEDTAMYFCARDRDYGNSYYYALDYWGQGTSVTVSS
VL: QIVLSQSPAILSASPGERVTMTCRASSSVSFMHWLQQKPGSSPKPWIYATSNLASGVSARFSGSGSGTSYSLTITRVEAEDAATYYCQQWSSNPPAFGGGTKLEIK
notes: also called 7G76B; mouse anti-human CD25 clone 7G7B6
EC50 (read off the curve) [8]: ~1 µg/mL

B6: Antibody 6 (antibody, V domains shown)
VH: EVQLLESGGGLVQPGGSLRLSCAASGFTFSSYGMSWVRQAPGKGLELVSTINGYGDTTYYPDSVKGRFTISRDNSKNTLYLQMNSLRAEDTAVYYCARDRDYGNSYYYALDYWGQGTLVTVSS
VL: EIVLTQSPGTLSLSPGERATLSCRASSSVSFMHWLQQKPGQAPRPLIYATSNLASGIPDRFSGSGSGTDYTLTISRLEPEDFAVYYCQQWSSNPPAFGQGTKLEIK
notes: as for B7
binding result [10]: binds

B9: Antibody 5 (antibody, V domains shown)
VH: EVQLVESGGGLIQPGGSLRLSCAASGFTLDSYGVSWVRQAPGKGLEWVGVTSSGGSAYYADSVKGRFTISRDNSKNTLYLQMNSLRAEDTAVYYCARDRYVYTGGYLYHYGMDLWGQGTLVTVSS
VL: DIQMTQSPSSLSASVGDRVTITCRASQSISDYLAWYQQKPGKVPKLLIYAASTLPFGVPSRFSGSGSGTDFTLTISSLQPEDVATYYCQGTYDSSDWYWAFGGGTKVEI
notes: as for B7
Kd [13]: 0.8 nM

B10: Antibody 20 (antibody, V domains shown)
VH: QVQLVESGGGVVQPGGSLRLSCAVSGFSLTSYGIQWVRQAPGKGLEWVSVIWAGGSTNYNSALMSRFTISKDNSKSTLYLQMNSLRAEDTAVYYCARAYGYDGSWLAYWGQGTLVTVSS
VL: DIQMTQSPSSLSASVGDRVTITCRASSSVSYMHWYQQKPGKAPKPLIFATSNLASGVPSRFSGSGSGTDYTLTISSLQPEDFATYYCQQWSSNPPTFGGGTKLEIK
notes: also called Ab20
EC50 (read off the curve) [14]: ~0.2 µg/mL

B11: Antibody 21 (antibody, V domains shown)
VH: QVQLVESGGGVVQPGGSLRLSCAVSGFSLTSYGIQWVRQAPGKGLEWVSVIWAGGSTNYNSALMSRFTISKDNSKSTLYLQMNSLRAEDTAVYYCARAYGYDGSWLAYWGQGTLVTVSS
VL: QIQLTQSPSSLSASVGDRVTITCRASSSVSYMHWYQQKPGKSPKPLIFATSNLASGVPSRFSGSGSGTDYTLTISSLQPEDFATYYCQQWSSNPPTFGGGTKLEIK
notes: also called Ab21
EC50 (read off the curve) [15]: ~0.2 µg/mL
